T1: Peptide #289 11-mer (SARS-CoV-2, Wuhan-Hu-1)
T1 chain: DKYFKNHTSPD

T2: Peptide #288 15-mer (SARS-CoV-2, Wuhan-Hu-1)
T2 chain: KEELDKYFKNHTSPD


Key:
Peptide #289 11-mer = target: T1, Peptide #289 11-mer; test: SPR
Peptide #288 15-mer = target: T2, Peptide #288 15-mer; test: ELISA
[1] = target: SARS-CoV-2 S glycoprotein, original Wuhan-Hu-1 strain (WT), full-length, on 293T cells (SARS-CoV-2, UniProt P0DTC2); test: flow cytometry on cells

| Binder | Kd (Peptide #289 11-mer) [nM] | binding result (Peptide #288 15-mer) | binding result [1] |
| --- | --- | --- | --- |
| CV3-25 IgG (antibody, V domains shown) VH: EVQLVESGAEVKKPGESLKISCKGSGYTFTRYWIGWVRQMPGKGLEWMGIIYPGDSDTRYSPSFQGHVTISADKSISTAYLQWNSLKASDTAMYYCARLPQYCSNGVCQRWFDPWGQGTLVTVSS VL: EIVLTQSPSSVSASVGDRVTITCRASQGISSWLAWYQQKPGKAPKLLIYAASSLQSGVPSRFSGSGSGTDFTLTISSLQPEDFATYYCQQGNSFPYTFGQGTNLEIK | ~1000 | binds |  |
| CV3-1 IgG (antibody, V domains shown) VH: EVQLVESGPEVKKPGTSVKVPCKASGFTFTSSAVQWVRQARGQRLEWIGWIVVGSGNTNYAQKFQERVTITRDMSTSTAYMELSSLRSEDTAVYYCAAPSCSGGRCYDGFDIWGQGTMVTVSS VL: not shown |  |  | binds |
